We go through five molecules from US20030199423A1 (published 2003).

B4: soluble human ICAM-R (receptor)
chain: QEFLLRVEPQNPVLSAGGSLFVNCSTDCPSSEKIALETSLSKELVASGMGWAAFNLSNVTGNSRILCSVYCNGSQITGSSNITVYGLPERVELAPLPPWQPVGQNFTLRCQVEGGSPRTSLTVVLLRWEEELSRQPAVEEPAEVTATVLASRDDHGAPFSCRTELDMQPQGLGLFVNTSAPRQLRTFVLPVTPPRLVAPRFLEVETSWPVDCTLDGLFPASEAQVYLALGDQMLNATVMNHGDTLTATATATARADQEGAREIVCNVTLGGERREARENLTVFSFLGPIVNLSEPTAHEGSTVTVSCMAGARVQVTLDGVPAAAPGQTAQLQLNATESDDGRSFFCSATLEVDGEFLHRNSSVQLRVLYGPKIDRATCPQHLKWKDKTRHVLQCQARGNPYPELRCLKEGSSREVPVGIPFFVNVTHNGTYQCQASSSRGKYTLVVVMDIEAFSSH
notes: baculovirus, Sf-9 cells, lentil lectin purified; also called shICAM-R; soluble ICAM-R

The target of experiment [1] is T1, ICAM-R mutant F21V/AS (human, UniProt P32942 30-547).
T1 construct: on transfected COS cells
T1 chain: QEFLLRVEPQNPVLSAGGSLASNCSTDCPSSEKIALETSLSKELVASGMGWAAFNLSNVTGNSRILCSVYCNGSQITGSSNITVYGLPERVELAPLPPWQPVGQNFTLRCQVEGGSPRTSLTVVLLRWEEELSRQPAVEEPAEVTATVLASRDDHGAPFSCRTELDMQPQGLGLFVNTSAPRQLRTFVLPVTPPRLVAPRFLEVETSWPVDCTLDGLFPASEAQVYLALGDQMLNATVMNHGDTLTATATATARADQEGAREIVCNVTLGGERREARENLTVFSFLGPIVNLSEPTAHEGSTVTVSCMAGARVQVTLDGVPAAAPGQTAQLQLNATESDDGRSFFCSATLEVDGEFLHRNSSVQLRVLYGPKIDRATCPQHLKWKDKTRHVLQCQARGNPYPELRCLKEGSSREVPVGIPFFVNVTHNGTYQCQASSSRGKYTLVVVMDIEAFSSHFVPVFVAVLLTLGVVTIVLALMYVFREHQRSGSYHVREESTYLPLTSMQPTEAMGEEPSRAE
The experiment is described as follows: FACS on COS transfectants.

For experiment [2], the target named is T2, macaque ICAM-R on peripheral blood leukocytes (Macaca fascicularis, UniProt A0A2K5TJA8 30-547).
T2 construct: whole, on cells; also called monkey PBL; macaque leukocytes
T2 sequence: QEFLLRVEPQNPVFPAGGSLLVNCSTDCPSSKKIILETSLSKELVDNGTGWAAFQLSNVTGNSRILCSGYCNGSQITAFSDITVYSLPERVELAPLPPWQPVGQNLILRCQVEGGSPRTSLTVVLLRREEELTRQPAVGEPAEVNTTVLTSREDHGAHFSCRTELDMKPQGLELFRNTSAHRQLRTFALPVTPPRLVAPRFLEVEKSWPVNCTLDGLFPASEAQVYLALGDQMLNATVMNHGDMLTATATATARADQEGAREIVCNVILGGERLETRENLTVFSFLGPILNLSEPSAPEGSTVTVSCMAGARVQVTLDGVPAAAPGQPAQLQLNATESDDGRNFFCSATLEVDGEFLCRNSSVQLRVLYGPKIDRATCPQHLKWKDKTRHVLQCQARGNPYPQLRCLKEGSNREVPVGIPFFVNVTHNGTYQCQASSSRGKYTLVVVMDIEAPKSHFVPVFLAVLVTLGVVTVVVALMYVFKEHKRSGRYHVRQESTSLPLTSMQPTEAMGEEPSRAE
The experiment is described as follows: FACS on Macaca fascicularis PBL.

Experiment [3] addresses T3, ICAM-R/IgG chimera, wild type (human, UniProt P32942 30-485).
T3 construct: also called ICAM-3/IgG; ICAM-R/Ig fusion protein
T3 chain: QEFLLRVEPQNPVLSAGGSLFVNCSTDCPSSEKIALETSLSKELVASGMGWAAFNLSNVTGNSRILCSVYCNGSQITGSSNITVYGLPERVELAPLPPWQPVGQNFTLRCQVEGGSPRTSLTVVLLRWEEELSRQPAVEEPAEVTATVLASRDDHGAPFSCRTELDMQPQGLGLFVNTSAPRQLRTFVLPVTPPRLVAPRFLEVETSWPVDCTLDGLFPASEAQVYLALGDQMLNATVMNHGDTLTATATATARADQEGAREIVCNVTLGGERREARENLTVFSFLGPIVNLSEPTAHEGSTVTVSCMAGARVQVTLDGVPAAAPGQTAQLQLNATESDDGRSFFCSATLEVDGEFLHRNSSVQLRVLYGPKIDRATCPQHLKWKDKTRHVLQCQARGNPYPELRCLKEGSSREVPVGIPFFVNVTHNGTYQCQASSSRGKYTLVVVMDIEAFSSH
The experiment is described as follows: ELISA on ICAM-R/Ig fusion protein. Background: ELISA stands for enzyme-linked immunosorbent assay.

The target of experiment [4] is B4. The experiment is described as follows: ELISA on coated baculovirus soluble ICAM-R.
The target of experiment [5] is T4, Gp 150,95 (CD18/CD11c) (UniProt P20702 20-1163; P05107 23-769).
T4 construct: purified, coated on plastic
The experiment is described as follows: shICAM-R coated fluorescent beads on wells coated with purified Gp 150,95.

In experiment [6] the target is Mac-1 (CD18/CD11b) (UniProt P11215 17-1152; P05107 23-769). In words: neutrophil adhesion to coated chimeras with blocking antibodies.

T4 sequence (P20702 20-1163 limits assumed, chain 1 of 2): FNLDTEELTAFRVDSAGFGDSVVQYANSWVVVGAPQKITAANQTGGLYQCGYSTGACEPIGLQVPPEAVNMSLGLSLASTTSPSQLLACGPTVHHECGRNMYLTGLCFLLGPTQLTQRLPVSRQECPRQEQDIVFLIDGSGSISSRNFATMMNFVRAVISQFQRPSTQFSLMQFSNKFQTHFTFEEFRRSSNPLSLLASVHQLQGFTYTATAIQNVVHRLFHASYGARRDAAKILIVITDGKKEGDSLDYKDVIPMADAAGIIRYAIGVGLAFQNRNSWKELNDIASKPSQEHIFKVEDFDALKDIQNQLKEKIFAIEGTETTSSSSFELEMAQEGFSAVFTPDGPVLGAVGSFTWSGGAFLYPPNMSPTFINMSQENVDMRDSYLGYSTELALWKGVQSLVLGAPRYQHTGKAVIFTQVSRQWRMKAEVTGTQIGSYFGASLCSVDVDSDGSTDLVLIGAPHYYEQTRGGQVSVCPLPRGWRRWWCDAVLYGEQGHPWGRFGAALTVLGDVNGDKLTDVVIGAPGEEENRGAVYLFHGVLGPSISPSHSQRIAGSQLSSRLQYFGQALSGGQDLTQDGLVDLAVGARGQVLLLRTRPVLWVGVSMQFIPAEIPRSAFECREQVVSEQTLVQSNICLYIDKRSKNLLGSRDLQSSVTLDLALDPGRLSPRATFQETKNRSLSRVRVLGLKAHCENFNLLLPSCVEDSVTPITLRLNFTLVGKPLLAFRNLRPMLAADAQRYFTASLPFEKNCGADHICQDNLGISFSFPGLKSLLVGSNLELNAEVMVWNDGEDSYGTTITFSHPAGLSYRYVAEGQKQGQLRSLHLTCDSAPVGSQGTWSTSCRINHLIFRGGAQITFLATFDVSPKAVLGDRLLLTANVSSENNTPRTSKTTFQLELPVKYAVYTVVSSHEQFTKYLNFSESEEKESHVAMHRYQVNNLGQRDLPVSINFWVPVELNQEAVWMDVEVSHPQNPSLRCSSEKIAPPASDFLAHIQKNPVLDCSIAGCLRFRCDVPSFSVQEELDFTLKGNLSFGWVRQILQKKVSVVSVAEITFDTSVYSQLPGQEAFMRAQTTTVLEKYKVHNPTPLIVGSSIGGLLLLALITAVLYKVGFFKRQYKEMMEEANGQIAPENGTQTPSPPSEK
T4 sequence (P05107 23-769 limits assumed, chain 2 of 2): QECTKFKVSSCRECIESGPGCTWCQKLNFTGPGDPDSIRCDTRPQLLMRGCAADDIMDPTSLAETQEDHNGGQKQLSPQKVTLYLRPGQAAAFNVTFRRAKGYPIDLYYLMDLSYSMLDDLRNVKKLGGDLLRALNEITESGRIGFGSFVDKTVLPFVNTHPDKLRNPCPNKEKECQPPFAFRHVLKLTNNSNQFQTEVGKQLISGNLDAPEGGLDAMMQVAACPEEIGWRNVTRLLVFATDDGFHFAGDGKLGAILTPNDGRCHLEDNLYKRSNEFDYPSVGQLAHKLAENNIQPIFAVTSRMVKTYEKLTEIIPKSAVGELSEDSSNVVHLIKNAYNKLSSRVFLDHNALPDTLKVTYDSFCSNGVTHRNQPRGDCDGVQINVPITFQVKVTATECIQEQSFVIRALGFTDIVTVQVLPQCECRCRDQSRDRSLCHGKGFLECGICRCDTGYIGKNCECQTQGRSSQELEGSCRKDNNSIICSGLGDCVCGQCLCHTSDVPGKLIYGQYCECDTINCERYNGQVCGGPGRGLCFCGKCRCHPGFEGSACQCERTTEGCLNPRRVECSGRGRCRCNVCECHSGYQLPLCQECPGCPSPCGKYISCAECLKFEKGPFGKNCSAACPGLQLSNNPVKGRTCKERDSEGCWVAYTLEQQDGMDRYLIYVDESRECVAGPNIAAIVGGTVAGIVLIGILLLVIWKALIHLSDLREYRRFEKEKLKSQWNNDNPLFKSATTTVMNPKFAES

B1: monoclonal antibody ICR-8.1 (antibody, mouse IgG1, V domains shown)
VH: EIQLQQTGPELVKPGASVKISCKASGYSFTDCIILWVKQSHGKGLEWIGKINPYFGTTTYNLKFKGKATLTVDKSSSTAHMQLNSLTSEDSAVYYCARKEAYPDAMDYWGQGTSVTVSS
VL: DAVMTQTPLSLPVSLGDQASISCRSSQSLVHSNGDTYLHWYLQKPGQSPQLLIYKVSNRFSGVPDRFSGSGSGTDFTLKLSRVEAEDLGVYFCSQSTHVPYTFGGGTKLEIK
notes: murine IgG1, kappa; hybridoma ATCC HB 11232; also called 46D7E
For B1, the binding result in experiment [1] and in experiment [2] was “no binding” throughout.

B2: monoclonal antibody ICR-1.1 (antibody, mouse IgG2a, V domains shown)
VH: QVQLQQSGAELAKPGASVKMSCKASGYTFTVYWMHWVKQRPGQGLEWIGYINPNTDYTEYNQRFQDKATLTADKSSSTAYMQLSSLTSEDSAVYYCARWGGNSYGLDYWGQGTSVTVSS
VL: QIVLTQSPALMSASPGEKVTMTCSASSSVSYIYWYQQKPRSSPKPWIYLTSNLASGVPARFSGSGSGASYSLTISIMEAEDAATYYCQQWKSIPLTFGAGTKLELK
notes: murine IgG2a, kappa; hybridoma ATCC HB 11053; also called 26E3D; 26E3D-1
Turning to B2, the binding result in experiment [1] and in experiment [2] was “no binding” throughout.

B3: humanized ICR-1.1 antibody HuVHK/HuVKP (antibody, human IgG4, V domains shown)
VH: QVQLVQSGAEVKKPGASVKVSCKASGYTFTVYWMHWVRQAPGQGLEWMGYINPNTDYTEYNQRFQDRVTITADKSTSTAYMELSSLRSEDTAVYYCARWGGNSYGLDYWGQGTLVTVSS
VL: DIQMTQSPSSLSASVGDRVTITCSASSSVSYIYWYQQKPGKAPKPLIYLTSNLASGVPSRFSGSGSGTDFTLTISSLQPEDFATYYCQQWKSIPLTFGQGTKLEIK
notes: human IgG4, human kappa
On to B3, for which the “binding relative to the chimeric antibody (MuVH/MuVK)” value in experiment [3] and in experiment [4] was at most 50 % difference in each case.
Take B4: the binding result in experiment [5] is recorded as “binds”.

B5: ICAM-2/IgG fusion protein (Fc fusion, not shown: a dimerising Fc or GST)
chain: KVFEVHVRPKKLAVEPKGSLEVNCSTTCNQPEVGGLETSLDKILLDEQAQWKHYLVSNISHDTVLQCHFTCSGKQESMNSNVSVYQPPRQVILTLQPTLVAVGKSFTIECRVPTVEPLDSLTLFLFRGNETLHYETFGKAAPAPQEATATFNSTADREDGHRNFSCLAVLDLMSRGGNIFHKHSAPKMLEIYEPVSDSQ
B5: the binding result in experiment [6] is on record as “binds”.
